This assay concerns the target Pex5L, a longer isoform of Pex5 (Chinese hamster, ClPex5L) (Chinese hamster, UniProt Q920N5 1-640). In words: pull-down; GST-Pex14 variants (2 μg) on glutathione-Sepharose beads incubated with EGFP-PTS1 (4 μg) or HA-catalase (4 μg) in the presence of Pex5L (2 μg) 2 h at 4°C; 50 mM Tris-HCl pH 7.5, 0.15 M NaCl, 1% Triton X-100, 10% glycerol; immunoblot. The following applies: both partners purified.

B1: HA-catalase (human, HA-HsCatalase) (enzyme)
chain: MADSRDPASDQMQHWKEQRAAQKADVLTTGAGNPVGDKLNVITVGPRGPLLVQDVVFTDEMAHFDRERIPERVVHAKGAGAFGYFEVTHDITKYSKAKVFEHIGKKTPIAVRFSTVAGESGSADTVRDPRGFAVKFYTEDGNWDLVGNNTPIFFIRDPILFPSFIHSQKRNPQTHLKDPDMVWDFWSLRPESLHQVSFLFSDRGIPDGHRHMNGYGSHTFKLVNANGEAVYCKFHYKTDQGIKNLSVEDAARLSQEDPDYGIRDLFNAIATGKYPSWTFYIQVMTFNQAETFPFNPFDLTKVWPHKDYPLIPVGKLVLNRNPVNYFAEVEQIAFDPSNMPPGIEASPDKMLQGRLFAYPDTHRHRLGPNYLHIPVNCPYRARVANYQRDGPMCMQDNQGGAPNYYPNSFGAPEQQPSALEHSIQYSGEVRRFNTANDDNVTQVRAFYVNVLNEEQRKRLCENIAGHLKDAQIFIQKKAVKNFTEVHPDYGSHIQALLDKYNAEKPKNAIHTFVQSGSHLAAREKANL
notes: catalase, human (HsCatalase), amplified from pUcD3/HA-HsCatalase (Otera and Fujiki, 2012) and cloned into pGEX6P-1; source: E. coli DH5α, purified as GST fusion with glutathione-Sepharose beads, isolated by cleaving with PreScission protease
Turning to B1, the binding result is given as “binds”.

Source of the values: paper doi:10.1101/2020.05.01.072132, “Peroxisome counteracts oxidative stresses by suppressing catalase import via Pex14 phosphorylation” (bioRxiv, 2020).
